# PMC12661054 (2025)
# Ends that are not written are not given here.
# T1: GST-TOPBP1(BRCT0-2 1-290) WT (human, UniProt Q92547 1-290)
# T1 chain: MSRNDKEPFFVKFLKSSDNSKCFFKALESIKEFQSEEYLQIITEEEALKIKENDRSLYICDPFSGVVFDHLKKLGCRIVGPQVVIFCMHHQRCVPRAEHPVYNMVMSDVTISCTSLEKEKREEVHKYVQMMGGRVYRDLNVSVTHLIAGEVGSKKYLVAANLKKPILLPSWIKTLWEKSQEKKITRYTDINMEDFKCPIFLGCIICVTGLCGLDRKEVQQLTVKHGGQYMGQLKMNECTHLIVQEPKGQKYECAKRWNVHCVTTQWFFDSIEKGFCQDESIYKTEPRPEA
# B1: Flu-SLX4_pT1260 (peptide)
# peptide: fluorescein-GYGTSWLVPATPLASRSR
# modifications: also: phosphothreonine at Thr1260, position in chain not mapped
# Assays:
# [1] = biological target: GST-TOPBP1(BRCT0-2 1-290) K250E (human, UniProt Q92547 1-290, K250E); experiment: FP
# [2] = biological target: T1, GST-TOPBP1(BRCT0-2 1-290) WT; experiment: FP
binder,measurement,setting,value
B1,Kd,[1],3.55 µM
same,Kd,[2],3.29 µM
